Experiments:
[1] = target: T1, Human NKp46 recombinant protein (human, UniProt O76036 22-258); assay: SPR (Biacore T100), bispecific captured on Protein-A chip, soluble recombinant human NKp46
T1 construct: also called recombinant human NKp46 proteins
Method: SPR measurements were performed on a Biacore T100 apparatus (Biacore GE Healthcare) at 25° C. In all Biacore experiments HBS-EP+ (Biacore GE Healthcare) and NaOH 10 mM served as running buffer and regeneration buffer respectively. Sensorgrams were analyzed with Biacore T100 Evaluation software. Protein-A was purchased from (GE Healthcare). Human NKp46 recombinant proteins were cloned, produced and purified at Innate Pharma.
(§1) The chip surface was activated with EDC/NHS (N-ethyl-N′-(3-dimethylaminopropyl) carbodiimidehydrochloride and N-hydroxysuccinimide (Biacore GE Healthcare)). Protein-A was diluted to 10 μg/ml in coupling buffer (10 mM acetate, pH 5.6) and injected until the appropriate immobilization level was reached (i.e. 2000 RU). Deactivation of the remaining activated groups was performed using 100 mM ethanolamine pH 8 (Biacore GE Healthcare).
Seven serial dilutions of human NKp46 recombinant proteins, ranging from 6.25 to 400 nM were sequentially injected over the captured Bi-Specific antibodies and allowed to dissociate for 10 min before regeneration. The entire sensorgram sets were fitted using the 1:1 kinetic binding model.

Human CD16b [2] = target: T2, Human CD16b (human, UniProt O75015 17-200); assay: SPR (Biacore T100), bispecific immobilised on CM5 chip, soluble FcR 60-5000 nM, Steady State Affinity model
T2 construct: also called FcγRIIIb
Method: (§2) SPR measurements were performed on a Biacore T100 apparatus (Biacore GE Healthcare) at 25° C. In all Biacore experiments HBS-EP+ (Biacore GE Healthcare) and 10 mM NaOH, 500 mM NaCl served as running buffer and regeneration buffer respectively. Sensorgrams were analyzed with Biacore T100 Evaluation software. Recombinant human FcR's (CD64, CD32a, CD32b, CD16a and CD16b) were cloned, produced and purified.
as §1, with “Bispecific antibodies were” for “Protein-A was”, “[…]” for “μg/ml”, “800 to 900” for “2000”
(§3) Monovalent affinity study was assessed following a classical kinetic wizard (as recommended by the manufacturer). Serial dilutions of soluble analytes (FcRs) ranging from 0.7 to 60 nM for CD64 and from 60 to 5000 nM for all the other FcRs were injected over the immobilized bispecific antibodies and allowed to dissociate for 10 min before regeneration. The entire sensorgram sets were fitted using the 1:1 kinetic binding model for CD64 and with the Steady State Affinity model for all the other FcRs.

Human CD16a [3] = target: T3, Human CD16a (human, UniProt P08637 17-208); assay: as above
T3 construct: also called FcγRIIIa
Method: as §2
as §1, with “Bispecific antibodies were” for “Protein-A was”, “[…]” for “μg/ml”, “800 to 900” for “2000”
as §3

Human CD32b [4] = target: T4, Human CD32b (human, UniProt P31994 46-217, limits assumed); assay: as above
T4 construct: also called FcγRIIB
T4 sequence (looked up): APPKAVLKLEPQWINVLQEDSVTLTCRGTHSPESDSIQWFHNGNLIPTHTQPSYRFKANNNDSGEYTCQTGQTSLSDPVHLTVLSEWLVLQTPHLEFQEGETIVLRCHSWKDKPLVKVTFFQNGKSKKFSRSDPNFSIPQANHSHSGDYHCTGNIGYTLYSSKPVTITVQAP
Method: as §2
as §1, with “Bispecific antibodies were” for “Protein-A was”, “[…]” for “μg/ml”, “800 to 900” for “2000”
as §3

Human CD32a [5] = target: T5, Human CD32a (human, UniProt P12318 36-218, limits assumed); assay: as above
T5 construct: also called FcγRIIA
T5 sequence (looked up): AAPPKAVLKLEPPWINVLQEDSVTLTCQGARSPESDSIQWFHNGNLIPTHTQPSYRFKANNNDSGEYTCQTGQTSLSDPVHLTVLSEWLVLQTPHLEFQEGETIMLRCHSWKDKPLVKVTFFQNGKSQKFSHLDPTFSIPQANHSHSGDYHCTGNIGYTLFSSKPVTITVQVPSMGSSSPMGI
Method: as §2
as §1, with “Bispecific antibodies were” for “Protein-A was”, “[…]” for “μg/ml”, “800 to 900” for “2000”
as §3

Human CD64 [6] = target: T6, Human CD64 (human, UniProt P12314 16-288, limits assumed); assay: SPR (Biacore T100), bispecific immobilised on CM5 chip, soluble CD64 0.7-60 nM, 1:1 kinetic model
T6 construct: also called FcγRI
Method: as §2
as §1, with “Bispecific antibodies were” for “Protein-A was”, “[…]” for “μg/ml”, “800 to 900” for “2000”
as §3

Human CD16b [7] = target: T2, Human CD16b; assay: SPR (Biacore T100), bispecific immobilised on CM5 chip, soluble FcR
Method: as §2
as §1, with “Bispecific antibodies were” for “Protein-A was”, “[…]” for “μg/ml”, “800 to 900” for “2000”
as §3

Human CD16a [8] = target: T3, Human CD16a; assay: as above
Method: as §2
as §1, with “Bispecific antibodies were” for “Protein-A was”, “[…]” for “μg/ml”, “800 to 900” for “2000”
as §3

Human CD64 [9] = target: T6, Human CD64; assay: as above
Method: as §2
as §1, with “Bispecific antibodies were” for “Protein-A was”, “[…]” for “μg/ml”, “800 to 900” for “2000”
as §3

Human CD32b [10] = target: T4, Human CD32b; assay: as above
Method: as §2
as §1, with “Bispecific antibodies were” for “Protein-A was”, “[…]” for “μg/ml”, “800 to 900” for “2000”
as §3

Human CD32a [11] = target: T5, Human CD32a; assay: as above
Method: as §2
as §1, with “Bispecific antibodies were” for “Protein-A was”, “[…]” for “μg/ml”, “800 to 900” for “2000”
as §3

T3 sequence (P08637 17-208 limits assumed): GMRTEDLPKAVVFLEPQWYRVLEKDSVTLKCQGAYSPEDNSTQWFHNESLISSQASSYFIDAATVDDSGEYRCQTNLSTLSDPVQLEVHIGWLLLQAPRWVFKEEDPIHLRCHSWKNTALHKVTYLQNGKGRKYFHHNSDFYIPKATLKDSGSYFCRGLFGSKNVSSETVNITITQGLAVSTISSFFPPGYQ
T2 sequence (O75015 17-200 limits assumed): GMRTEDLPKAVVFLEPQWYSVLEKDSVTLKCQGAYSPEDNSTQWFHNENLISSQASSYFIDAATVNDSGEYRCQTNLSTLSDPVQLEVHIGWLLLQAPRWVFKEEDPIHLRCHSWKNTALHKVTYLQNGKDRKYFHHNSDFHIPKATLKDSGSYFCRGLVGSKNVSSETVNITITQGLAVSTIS
T6 sequence (P12314 16-288 limits assumed): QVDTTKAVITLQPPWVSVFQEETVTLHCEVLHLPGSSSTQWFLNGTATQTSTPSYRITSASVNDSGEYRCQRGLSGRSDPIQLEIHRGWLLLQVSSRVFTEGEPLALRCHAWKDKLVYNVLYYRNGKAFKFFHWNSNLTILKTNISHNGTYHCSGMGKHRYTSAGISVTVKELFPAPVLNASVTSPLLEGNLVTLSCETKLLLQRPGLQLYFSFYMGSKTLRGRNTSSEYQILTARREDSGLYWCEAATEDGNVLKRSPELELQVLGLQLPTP
T1 sequence (O76036 22-258 Q82K limits assumed): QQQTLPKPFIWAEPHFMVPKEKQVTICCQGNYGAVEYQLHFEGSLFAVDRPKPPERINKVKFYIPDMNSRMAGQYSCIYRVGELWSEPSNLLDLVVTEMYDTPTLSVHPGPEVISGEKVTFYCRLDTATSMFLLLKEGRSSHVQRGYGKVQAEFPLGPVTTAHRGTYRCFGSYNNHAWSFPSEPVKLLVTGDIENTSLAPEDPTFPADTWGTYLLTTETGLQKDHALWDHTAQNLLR

B1: CD19-F1-NKp46-6 (bispecific antibody)
chain: DIQLTQSPASLAVSLGQRATISCKASQSVDYDGDSYLNWYQQIPGQPPKLLIYDASNLVSGIPPRFSGSGSGTDFTLNIHPVEKVDAATYHCQQSTEDPWTFGGGTKLEIKGGGGSGGGGSGGGGSQVQLQQSGAELVRPGSSVKISCKASGYAFSSYWMNWVKQRPGQGLEWIGQIWPGDGDTNYNGKFKGKATLTADESSSTAYMQLSSLASEDSAVYFCARRETTTVGRYYYAMDYWGQGTTVTVSSGGGSSAPELLGGPSVFLFPPKPKDTLMISRTPEVTCVVVDVSHEDPEVKFNWYVDGVEVHNAKTKPREEQYNSTYRVVSVLTVLHQDWLNGKEYKCKVSNKALPAPIEKTISKAKGQPREPQVYTKPPSREEMTKNQVSLSCLVKGFYPSDIAVEWESNGQPENNYKTTVPVLDSDGSFRLASYLTVDKSRWQQGNVFSCSVMHEALHNHYTQKSLSLSPGSTGSQVQLQQPGSVLVRPGASVKLSCKASGYTFTSSWMHWAKQRPGQGLEWIGHIHPNSGISNYNEKFKGKATLTVDTSSSTAYVDLSSLTSEDSAVYYCARGGRFDDWGAGTTVTVSSVEGGSGGSGGSGGSGGVDDIVMTQSPATLSVTPGDRVSLSCRASQSISDYLHWYQQKSHESPRLLIKYASQSISGIPSRFSGSGSGSDFTLSINSVEPEDVGVYYCQNGHSFLMYTFGGGTKLEIK
notes: Single chain F1 format, complete mature protein
binding result [1]: no binding

B2: CD19-F5-NKp46-3 (bispecific antibody, human IgG1, kappa)
chain 1: not shown
chain 2: not shown
chain 3: DIVMTQSPATLSVTPGDRVSLSCRASQSISDYLHWYQQKSHESPRLLIKYASQSISGIPSRFSGSGSGSDFTLSINSVEPEDVGVYYCQNGHSFPLTFGAGTKLELKASTKGPSVFPLAPSSKSTSGGTAALGCLVKDYFPEPVTVSWNSGALTSGVHTFPAVLQSSGLYSLSSVVTVPSSSLGTQTYICNVNHKPSNTKVDKRVEPKSCDKTH
Kd (Human CD16b [2]): 2430 nM
Kd (Human CD16a [3]): 1100 nM
Kd (Human CD32b [4]): 1850 nM
Kd (Human CD32a [5]): 846 nM
Kd (Human CD64 [6]): 0.7 nM

B3: CD19-F6-NKp46-3 (bispecific antibody, human IgG1, kappa)
chain 1: not shown
chain 2: not shown
chain 3: B2 chain 3
binding result (Human CD16b [7]): no binding (tested: 60 to 5000 nM)
binding result (Human CD16a [8]): no binding (tested: 60 to 5000 nM)
binding result (Human CD64 [9]): no binding (tested: 0.7 to 60 nM)
binding result (Human CD32b [10]): no binding (tested: 60 to 5000 nM)
binding result (Human CD32a [11]): no binding (tested: 60 to 5000 nM)
